Results: patent publication US20200199233A1
“And” between values parts separate entries of the source, which are not always exact repeats. Identical values can stand only once.

Assays:
[1] = target: human MUC16 on cells (OVCAR-3, PEO1, 3T3/hβ2M/HLA-A2/NYESO1p/hMUC16) (human); test: flow cytometry ('FACS binding', MFI_PE) on cells, the same assay as the other two curves. The control's curve is flat at baseline, so this is a fit value without a response. The unit is taken from the axis, Log10 (M).
[2] = target: human MUC16 on cells (OVCAR-3, PEO1, 3T3/hβ2M/HLA-A2/NYESO1p/hMUC16) (human); test: flow cytometry ('FACS binding', MFI_PE) on cells. The sheet names no cell line; the legend of FIGS. 2A-2I names PEO1 (endogenous MUC16). The unit is taken from the axis, Log10 (M).
[3] = target: human MUC16 on cells (OVCAR-3, PEO1, 3T3/hβ2M/HLA-A2/NYESO1p/hMUC16) (human); test: cell-based or functional assay
hMUC16.mmh (human) = test: SPR (Biacore), 37 C, antibody captured by anti-human Fc, hMUC16.mmh injected
mCD28.mmh (mouse) = test: SPR (Biacore), 37 C, antibody captured by anti-human Fc, mCD28.mmh injected
Sequence of mCD28.mmh (mouse) (chain, as listed by the source limits assumed): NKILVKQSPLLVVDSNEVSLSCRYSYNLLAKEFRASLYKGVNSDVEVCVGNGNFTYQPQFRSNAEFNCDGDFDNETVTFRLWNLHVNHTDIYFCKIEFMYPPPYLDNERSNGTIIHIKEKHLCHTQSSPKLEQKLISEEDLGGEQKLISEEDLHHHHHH

Sequence of hMUC16.mmh (human) (chain, as listed by the source limits assumed): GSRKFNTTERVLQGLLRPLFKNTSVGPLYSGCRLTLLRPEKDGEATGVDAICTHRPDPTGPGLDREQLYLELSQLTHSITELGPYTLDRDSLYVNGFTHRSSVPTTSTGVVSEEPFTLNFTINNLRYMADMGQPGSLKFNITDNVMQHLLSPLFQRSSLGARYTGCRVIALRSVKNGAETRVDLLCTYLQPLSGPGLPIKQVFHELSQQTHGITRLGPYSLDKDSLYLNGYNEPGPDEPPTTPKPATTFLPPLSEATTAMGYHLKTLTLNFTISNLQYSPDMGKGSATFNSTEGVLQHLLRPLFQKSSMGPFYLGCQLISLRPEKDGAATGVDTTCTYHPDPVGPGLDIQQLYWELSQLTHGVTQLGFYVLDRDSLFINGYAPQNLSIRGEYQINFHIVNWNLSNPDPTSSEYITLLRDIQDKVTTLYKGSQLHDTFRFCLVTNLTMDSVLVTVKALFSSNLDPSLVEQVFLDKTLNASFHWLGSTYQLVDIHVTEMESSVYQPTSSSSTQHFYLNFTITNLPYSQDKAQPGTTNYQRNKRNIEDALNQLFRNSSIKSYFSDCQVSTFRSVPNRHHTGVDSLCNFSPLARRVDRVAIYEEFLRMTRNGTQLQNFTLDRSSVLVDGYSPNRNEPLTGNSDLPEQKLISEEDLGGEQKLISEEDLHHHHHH

Question: “CD3-BINDING CONTROL (bispecific antibody)” was tested. Which EC50 [1] did it give?
Answer: 2.27 nM

Question: What does the source list for REGN4018 (bispecific antibody)?
Answer: EC50 [2]: 1.84 nM; PEO1 Kill EC50 [M], human PBMCs, MUC16xCD3 as single agent [3]: 1.27e-10 M; PEO1 Kill EC50 [M], human PBMCs, MUC16xCD3 titrated in the presence of bs24963D [3]: 1.07e-10 M and 5.31e-11 M; PEO1 min. % viability, human PBMCs, MUC16xCD3 as single agent [3]: 57%; PEO1 min. % viability, human PBMCs, MUC16xCD3 titrated in the presence of bs24963D [3]: 9.8%; PEO1 min. % viability, human PBMCs, MUC16xCD3 titrated in the presence of bs32897D [3]: 17.7%

Question: What does the source list for REGN4615 (bispecific antibody)?
Answer: 90 nM hMUC16.mmh Bind (RU) (hMUC16.mmh (human)): 513 RU; Kd (hMUC16.mmh (human)): 0.749 nM; T½ (hMUC16.mmh (human)): 24.5 min; koff (hMUC16.mmh (human)): 0.000472 s⁻¹; kon (hMUC16.mmh (human)): 629000 M⁻¹ s⁻¹; Kd (mCD28.mmh (mouse)): 3.76 nM; T½ (mCD28.mmh (mouse)): 149 min; koff (mCD28.mmh (mouse)): 7.77e-05 s⁻¹; kon (mCD28.mmh (mouse)): 20700 M⁻¹ s⁻¹
